Results as given in IntAct's records for PubMed 19033529.

B1: Protein phosphatase 2C 16 (Arabidopsis thaliana (Mouse-ear cress)), Q9CAJ0 (parent)
chain: MEEMTPAVAMTLSLAANTMCESSPVEITQLKNVTDAADLLSDSENQSFCNGGTECTMEDVSELEEVGEQDLLKTLSDTRSGSSNVFDEDDVLSVVEDNSAVISEGLLVVDAGSELSLSNTAMEIDNGRVLATAIIVGESSIEQVPTAEVLIAGVNQDTNTSEVVIRLPDENSNHLVKGRSVYELDCIPLWGTVSIQGNRSEMEDAFAVSPHFLKLPIKMLMGDHEGMSPSLTHLTGHFFGVYDGHGGHKVADYCRDRLHFALAEEIERIKDELCKRNTGEGRQVQWDKVFTSCFLTVDGEIEGKIGRAVVGSSDKVLEAVASETVGSTAVVALVCSSHIVVSNCGDSRAVLFRGKEAMPLSVDHKPDREDEYARIENAGGKVIQWQGARVFGVLAMSRSIGDRYLKPYVIPEPEVTFMPRSREDECLILASDGLWDVMNNQEVCEIARRRILMWHKKNGAPPLAERGKGIDPACQAAADYLSMLALQKGSKDNISIIVIDLKAQRKFKTRT
partner: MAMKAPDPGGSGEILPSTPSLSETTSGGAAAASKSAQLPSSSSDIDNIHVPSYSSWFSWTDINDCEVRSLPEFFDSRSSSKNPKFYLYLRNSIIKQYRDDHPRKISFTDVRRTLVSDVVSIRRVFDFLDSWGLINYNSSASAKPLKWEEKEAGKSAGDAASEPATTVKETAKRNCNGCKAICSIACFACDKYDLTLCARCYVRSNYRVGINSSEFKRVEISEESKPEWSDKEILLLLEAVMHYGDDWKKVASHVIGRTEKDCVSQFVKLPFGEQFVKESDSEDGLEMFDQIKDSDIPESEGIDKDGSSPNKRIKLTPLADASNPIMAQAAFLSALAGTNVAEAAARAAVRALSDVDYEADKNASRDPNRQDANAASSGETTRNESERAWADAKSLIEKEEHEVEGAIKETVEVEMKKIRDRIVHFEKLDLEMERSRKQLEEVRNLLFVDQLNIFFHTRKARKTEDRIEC

Variants of: B1
Settings: with swi3b_arath SWI3B

effect of a mutation on the interaction | Variant
disrupting interaction | G246D
